The values that follow come from patent EP4763862A1 (Beijing Tide Pharmaceutical Co., Ltd., dated 2026).

Residue numbers refer to the chain shown, from its start.

One may read the EC50 as the concentration at which the effect is half-maximal. The low end stands for an effect from little substance, the high end for a need for much substance. One may read the Kd as the equilibrium constant for the complex coming apart. A lower Kd goes with a tighter complex. The koff is the rate constant with which the complex falls apart. What is called kon is the rate constant with which the complex forms. Low values mean slower complex formation, high ones faster complex formation.

To fix the notation:
T1: B7-H7 (UniProt Q9UM44 23-344)
T1 construct: not shown: His tag
T1 sequence (looked up): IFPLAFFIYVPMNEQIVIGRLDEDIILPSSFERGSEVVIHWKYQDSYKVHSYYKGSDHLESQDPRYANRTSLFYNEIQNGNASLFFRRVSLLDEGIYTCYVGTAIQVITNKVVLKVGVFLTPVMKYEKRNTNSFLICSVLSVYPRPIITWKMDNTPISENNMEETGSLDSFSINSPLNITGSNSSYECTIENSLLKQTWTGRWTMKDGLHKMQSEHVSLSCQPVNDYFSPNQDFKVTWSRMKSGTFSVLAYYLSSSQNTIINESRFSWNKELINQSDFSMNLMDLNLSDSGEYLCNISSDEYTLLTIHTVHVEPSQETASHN

T2: PD-L2 (UniProt Q9BQ51 20-219)
T2 construct: not shown: His tag
T2 sequence (looked up): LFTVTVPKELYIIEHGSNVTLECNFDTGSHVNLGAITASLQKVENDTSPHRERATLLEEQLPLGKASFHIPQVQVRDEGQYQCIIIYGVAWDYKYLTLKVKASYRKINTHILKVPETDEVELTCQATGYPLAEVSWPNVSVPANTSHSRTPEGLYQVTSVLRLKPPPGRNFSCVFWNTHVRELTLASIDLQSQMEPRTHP

T3: B7-H6 (UniProt Q68D85 25-262)
T3 construct: not shown: His tag
T3 sequence (looked up): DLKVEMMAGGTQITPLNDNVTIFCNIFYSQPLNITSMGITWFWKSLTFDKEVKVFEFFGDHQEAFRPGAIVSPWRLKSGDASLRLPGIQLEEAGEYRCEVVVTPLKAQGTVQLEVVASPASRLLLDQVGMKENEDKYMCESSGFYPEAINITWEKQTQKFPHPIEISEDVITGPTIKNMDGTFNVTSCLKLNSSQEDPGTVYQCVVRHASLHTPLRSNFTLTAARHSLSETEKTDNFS

T4: B7-2 (UniProt P42081 26-247, limits assumed)
T4 construct: not shown: His tag
T4 sequence (looked up): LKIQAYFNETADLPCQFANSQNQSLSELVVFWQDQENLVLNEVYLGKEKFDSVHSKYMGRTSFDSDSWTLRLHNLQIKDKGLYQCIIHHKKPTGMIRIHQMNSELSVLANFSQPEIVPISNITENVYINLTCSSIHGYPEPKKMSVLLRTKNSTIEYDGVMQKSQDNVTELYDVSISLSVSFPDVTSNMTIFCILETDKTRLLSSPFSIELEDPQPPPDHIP

T5: B7-H2 (UniProt O75144 19-258, limits assumed)
T5 construct: not shown: His tag
T5 sequence (looked up): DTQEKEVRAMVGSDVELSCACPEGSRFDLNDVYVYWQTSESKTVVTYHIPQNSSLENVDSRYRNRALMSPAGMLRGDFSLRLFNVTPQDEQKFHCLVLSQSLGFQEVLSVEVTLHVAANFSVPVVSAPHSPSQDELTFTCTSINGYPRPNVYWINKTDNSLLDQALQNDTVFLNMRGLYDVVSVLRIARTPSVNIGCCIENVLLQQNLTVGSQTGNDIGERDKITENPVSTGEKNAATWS

T6: B7-H5 (UniProt Q9H7M9 33-194)
T6 construct: The name B7-H5 is ambiguous in the literature; not shown: His tag
T6 sequence (looked up): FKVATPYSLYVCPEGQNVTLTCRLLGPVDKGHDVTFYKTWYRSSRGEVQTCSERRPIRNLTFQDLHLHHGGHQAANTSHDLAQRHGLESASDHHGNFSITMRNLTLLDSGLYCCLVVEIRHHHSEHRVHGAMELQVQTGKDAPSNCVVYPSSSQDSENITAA

T7: B7-H4 (UniProt Q7Z7D3 29-258, limits assumed)
T7 construct: not shown: His tag
T7 sequence (looked up): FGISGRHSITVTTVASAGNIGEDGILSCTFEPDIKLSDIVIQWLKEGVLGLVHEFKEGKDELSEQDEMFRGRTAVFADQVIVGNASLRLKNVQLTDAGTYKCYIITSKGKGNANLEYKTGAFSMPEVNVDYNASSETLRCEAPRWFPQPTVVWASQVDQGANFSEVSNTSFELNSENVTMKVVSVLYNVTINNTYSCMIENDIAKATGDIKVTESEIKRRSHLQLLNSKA

T8: B7-1 (UniProt P33681 35-242)
T8 construct: not shown: His tag
T8 sequence (looked up): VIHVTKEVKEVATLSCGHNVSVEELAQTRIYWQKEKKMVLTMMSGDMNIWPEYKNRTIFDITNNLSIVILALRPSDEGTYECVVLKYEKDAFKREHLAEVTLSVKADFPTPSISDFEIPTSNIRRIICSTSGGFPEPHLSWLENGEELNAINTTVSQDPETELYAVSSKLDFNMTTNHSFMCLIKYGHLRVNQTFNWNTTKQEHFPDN

T9: B7-H3 on NCI-H446 cells (UniProt Q5ZPR3 29-534)
T9 construct: whole, on cells
T9 sequence (looked up): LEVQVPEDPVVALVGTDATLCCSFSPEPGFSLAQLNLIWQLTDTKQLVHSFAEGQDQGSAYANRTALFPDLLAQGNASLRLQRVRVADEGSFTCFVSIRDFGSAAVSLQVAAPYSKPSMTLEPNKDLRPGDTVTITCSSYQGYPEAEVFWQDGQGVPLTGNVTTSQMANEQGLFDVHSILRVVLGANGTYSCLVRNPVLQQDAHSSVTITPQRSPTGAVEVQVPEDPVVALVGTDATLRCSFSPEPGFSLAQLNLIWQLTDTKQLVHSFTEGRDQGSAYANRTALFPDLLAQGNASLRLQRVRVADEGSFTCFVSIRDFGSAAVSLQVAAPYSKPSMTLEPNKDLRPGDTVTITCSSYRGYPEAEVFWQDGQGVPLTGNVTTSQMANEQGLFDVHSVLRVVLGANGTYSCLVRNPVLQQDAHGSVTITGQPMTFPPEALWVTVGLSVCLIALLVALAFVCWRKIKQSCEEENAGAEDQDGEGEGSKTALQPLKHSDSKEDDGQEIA

B1: cAb1-z3-p7 (antibody, human IgG1, kappa, V domains shown)
VH: EVQLVESGGGLVKPGGSLRLSCAASGFTFSSYGMSWVRQAPGKRLEWVSSISGSGSYTYYPDSLKGRFTISRDNAKNSLYLQMNSLRAEDTAVYYCARQQGYWYFDVWGQGTTVTVSS
VL: DVVMTQTPLSLPVTPGEPASISCRASQSLASSYGKTYLSWYLQKPGQSPQLLIYGISNRFSGVPDRFSGSGSGTDFTLKISRVEAEDVGVYYCLHGTHQPLTFGQGTKLEIKR
notes: Humanized from 48-B4-F4-E4; Human IgG1 / kappa; also called cAbl-z3-p7
B2: cAb1-z5-p7 (antibody, human IgG1, kappa, V domains shown)
VH: B1 VH with S49A
VL: B1 VL
notes: Humanized from 48-B4-F4-E4; Human IgG1 / kappa; also called cAbl-z5-p7
B3: cAb1-z0-p7 (antibody, human IgG1, kappa, V domains shown)
VH: B1 VH with R44G
VL: B1 VL with V2I
notes: Humanized from 48-B4-F4-E4; Human IgG1 / kappa

One test has as its target T1, B7-H7. The test is described as follows: ELISA, His-tagged antigen coated at 1 µg/mL, HRP-Protein A detection.
As to B1, the binding result is reported as “no binding (tested: starting concentration 10 µg/ml)”.
Still for that read-out and setting: next, B2: “no binding (tested: starting concentration 10 µg/ml)”.
The same measure, in the same setting: next, B3: “no binding (tested: starting concentration 10 µg/ml)”.

In a further test the target is T10, hB7-H1 (PD-L1) (human, UniProt Q9NZQ7 19-238).
T10 construct: Species read from the printed prefix h; not shown: His tag
T10 sequence (Q9NZQ7 19-238 limits assumed): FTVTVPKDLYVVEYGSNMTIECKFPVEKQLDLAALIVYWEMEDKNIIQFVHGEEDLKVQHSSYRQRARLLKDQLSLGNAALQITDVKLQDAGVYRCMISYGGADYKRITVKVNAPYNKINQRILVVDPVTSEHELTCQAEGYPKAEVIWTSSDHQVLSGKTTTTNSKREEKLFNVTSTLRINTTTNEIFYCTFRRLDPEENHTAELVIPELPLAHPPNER
Described as above.
As for B1, the binding result was “no binding (tested: starting concentration 10 µg/ml)”.
The same measure, in the same setting: next, B2: “no binding (tested: starting concentration 10 µg/ml)”; B3: “no binding (tested: starting concentration 10 µg/ml)”.

The target in another test is T2, PD-L2. The description is as above.
In the case of B1, the binding result is “no binding (tested: starting concentration 10 µg/ml)”.
The same measure, in the same setting: next, B2: “no binding (tested: starting concentration 10 µg/ml)”; B3: “no binding (tested: starting concentration 10 µg/ml)”.

A further test deals with T3, B7-H6. The description is as above.
With B1, the binding result is given as “no binding (tested: starting concentration 10 µg/ml)”.
On the same count and under the same terms, in the case of B2 it was “no binding (tested: starting concentration 10 µg/ml)”; in that of B3, “no binding (tested: starting concentration 10 µg/ml)”.

A further test deals with T4, B7-2. The description is as above.
For the molecule B1, the binding result is listed as “no binding (tested: starting concentration 10 µg/ml)”.
On the same count and under the same terms, next, B2: “no binding (tested: starting concentration 10 µg/ml)”.
Same read-out and setting: in the case of B3 it was “no binding (tested: starting concentration 10 µg/ml)”.

Another test concerns the target T5, B7-H2. Described as above.
B1: the binding result is “no binding (tested: starting concentration 10 µg/ml)”.
As to B2, the binding result is reported as “no binding (tested: starting concentration 10 µg/ml)”.
On the same count and under the same terms, next, B3: “no binding (tested: starting concentration 10 µg/ml)”.

Another test deals with T6, B7-H5. The description is as above.
As for B1, the binding result was “no binding (tested: starting concentration 10 µg/ml)”.
With B2, the binding result is reported as “no binding (tested: starting concentration 10 µg/ml)”.
As to B3, the binding result is “no binding (tested: starting concentration 10 µg/ml)”.

The target of the next test is T7, B7-H4. The description is as above.
Take B1: the binding result is recorded as “no binding (tested: starting concentration 10 µg/ml)”.
As for B2, the binding result is “no binding (tested: starting concentration 10 µg/ml)”.
Still for that read-out and setting: in the case of B3 it was “no binding (tested: starting concentration 10 µg/ml)”.

A further test addresses T8, B7-1. The test is described as above.
As to B1, the binding result is recorded as “no binding (tested: starting concentration 10 µg/ml)”.
On the same count and under the same terms, in the case of B2 it was “no binding (tested: starting concentration 10 µg/ml)”; in that of B3, “no binding (tested: starting concentration 10 µg/ml)”.

The target of a further test is T9, B7-H3 on NCI-H446 cells. Briefly: flow cytometry on NCI-H446 cells, goat anti-human Fc secondary. (In general: A flow cytometer gives signals particle by particle.)
In turn, B1 displayed a 50% effective concentration (EC50) of 4.66 nM.
Take B2: it took 3.69 nM to reach a half-maximal effect (EC50).
With B3, a half-maximal effect (EC50) was put at 9.7 nM.

The target in a further test is T11, B7-H3 Cyno-His (cynomolgus monkey).
T11 construct: also called cynomolgus monkey B7-H3
Briefly: SPR, Biacore 8K, antibody captured by anti-human IgG Fc on CM5, B7-H3 Cyno-His as analyte, 1:1 model. In general terms: In SPR one partner is held on a chip, and binding of the other changes the refractive index at the surface.
As for B1, the affinity, expressed as Kd, was 3.87 nM; the koff is 5.82e-05 s⁻¹; the kon came out at 15100 M⁻¹ s⁻¹.
The matching figures for B2: 3.9 nM, 6.17e-05 s⁻¹ and 15800 M⁻¹ s⁻¹.
The molecule B3 yielded a Kd of 7.86 nM, a koff of 7.68e-05 s⁻¹ and an on-rate (kon) of 9770 M⁻¹ s⁻¹.
